# Measured values from the nanobody polyreactivity screen of Harvey et al. (2022).
# Experiment: yeast display, Sf9 membrane polyspecificity reagent, FACS + sequencing; frameworks hold sequencing errors
# Summary of the method: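 Synthetic nanobody libraries on Saccharomyces cerevisiae BJ5465 were galactose-induced for 36–48 hours, stained 1 hour at 4 °C with 10% biotinylated, detergent-solubilized Sf9 membrane reagent and enriched on streptavidin microbeads. FACS then separated cells into low and high (top ~1%) gates by anti-HA (expression) and streptavidin (reagent binding) fluorescence. Genes were colony-PCR amplified, MiSeq 2 × 250 sequenced and CDR-length filtered. A clone's polyreactivity label is that of its gate of origin.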
row,Sequence,polyreactivity (PSR sort gate)
1,QVQVVESGGGLVQAGGSLRLSCAASGFTFSFYAMGWYRQAPGKERELVAAISSGGTTSYADSVKGRFTISRDYAKNTVYLQMNSLKPEDTAVYYCATDVYYYRTGAYTSTKPYDYWGQGTQVTVSS,low polyreactivity
2,QVQVVESGGGLVQAGGSLRLSCAASGGTFGGYAMGWYRQAPGKERELVAAISSGGSTYYADSVKGRFTISRDNAKNTLYLQMNSLKPEDTAVYYCAAETVLGYWYYRKYYYWGQGTQVTVSS,high polyreactivity
3,QVQVVESGGGLVQAGGSLRLSCAASGIIFGAYAMGWYRQAPWKEMELVAAITYSSGSTYYADSVKGRFTISRDNSKNTVYLQMNSLKPEDTAVYYCDKTNFSQSSRFNYDYWGQGTQVTVSS,low polyreactivity
4,QVQVVESGGGLVQAGGSLRLSCAASGINFLTNAMGWYRQAPGKERELVAAISQSGGSTYYADSVKGRFTISRDHAKNTVYLQMNSLKPEDTAVYYCAAPQRYPRFYYWGQGTQVTVSS,high polyreactivity
5,QVQVVESGGGLVQAGGSLRLSCAASGLTFIFNAMGWYRQAPGKERELVADISSGVNTNYADSVKGRFSISRDNEKNTVYLQMNSLKTEDTEVHYCADRLAQTTGYGYWGQGTQVNVSS,low polyreactivity
6,QVQVVESGGGLVQAGGSLRLSCAASGRIFNYYAMGWYRQAPRKERELVAVISRTGVRTHYADSVKGRFTISRDNAKNTVYLQMNCLKPEDTAVYYCNADSYVFRYDYWGQGTQVTVSS,high polyreactivity
7,QVQVVESGGGLVQAGGSLRLSCAASGRIFPLYAMGWSRQAPGTERELVAAISSGGTTYYADSVKGRFTFSRDNAKNTVYLQMNSLKPEDTAVYYCARRPAQRWGRFDYWGQGTQVTVSS,low polyreactivity
8,QVQVVESGGGLVQAGGSLRLSCAASGRIFRANAMGGYRKAPGKERELVADISRSAGSTYYADSVKGRFTISRDNAKNTVYLQLNSLKPADTAVYYCAKRGYYSFDYWGQGTQVTVSS,high polyreactivity
9,QVQVVESGGGLVQAGGSLRLSCAASGSIFVYYTMGWYRQAPGKERELVAAITRGGRTNFADSVKGRFTISRDNAQNSVYLLMNSLNPEDTAVYYCAKGYYWLSTYGDSRYGYWGQGTQVTVSS,high polyreactivity
10,QVQVVESGGGLVQAGGSLRLSCAASGSIVSHYAMGWYRQAPGKERELVAGISRRGGRTYYADSVKGRFTISRDNAKNTVYLQMNSLKPEDTAVYYCAALRSSSFGYWGQGTQVTVSS,high polyreactivity
11,QVQVVESGGGLVQAGGSLRLSCAASGSNFQRYTMGLYRQAPGKDRELVAAITGRGGSTYYADSVKGRFTISRDNAKNTVYLEMNSLKPEDTAVYYCAAGAFRRYKSDYYYWGQGTQVTVSS,low polyreactivity
12,QVQVVESGGGLVQAGGSLRLSCAASGSTFKKYAMGWYRQAPGKERELVAAISWSGGSTYYADSVKGRFTISRDNAKNTVYLQMNSLKPEDTAVYYCAAYPYTYYLDRYEYWGQGTQVTVSS,high polyreactivity
13,QVQVVESGGGLVQAGGSLRLSCAASGSTFQYYAMGWYRQAPGKEREFFAAITWSGGRTYYADSVKGRFTISRDNAKNTVYLQMKSLKPEDTAVYYCAADIDGVWIPYEYDYWGQGTQGTVSS,low polyreactivity
14,QVQVVESGGGLVQAGGSLRLSCAASGSTFYINAIGWYRQAPGNERELVAAIYFRGGSTYYADSVKGRFPISRDNAKNTVYVKMNSLKPEVTAVYYCAAYYYFFRRYSWRLSCDYWGQGTQVTVSS,low polyreactivity
15,QVQVVESGGGLVQAGGSLRLSCAPSGRIFLGNRMSWYRHAPGKERELVAAISKSGGTTYYADSVKGRFTISRDNAKNTVYLQMNSLKPEDTAVYYCAASRPRPPSSRRMDYWGQGTQVTVSS,high polyreactivity
16,QVQVVESGGGLVQAGGSLRLTCAASGRTFYKNAMGWYRQAAGKERELFAAITTRGGTTFYADSVKGRFTISRDNAKNTDYLQLNSMIPEDTAVDYCAKDSYTRPRGYDFWGQGTHVTVSS,high polyreactivity
17,QVQVVQSGGGLVQAGGSLRLSCAASGSTFPGNAMGWNRQAPGKERELVASIRSSAASTYYADSVKGRFTISRDNAKNTVYLHMNSLKPEETAVYYWSVRSYRRFTNLSYRYDYWGQGTQVSVSS,high polyreactivity
18,QVRLVESGGGLFQAGGSLRISCAASGRIFNTYAMGWYRQAPGKERELVAAIRWSSGSTFYADSVKGRFTISRDYAKNTVYLQMNSLKPEDTAVYYCAADNWAVNAYYGYIYDYWGQGTQVTVSS,low polyreactivity
19,QVRLVESGGGLVQAGGSLRLTCAASGSTFTTYALGWYRQAPGKERELVAAISSGGDTKYADSVKGRFTISRDNAKNTIYLQMNSLIPEDTAVYYCAKRRYYRYYYWGQGTQVTVSS,high polyreactivity
20,QVTLVESGGGLVQAGGSLRLSCAASGFTFYIYAMGWYRQAPGKERELVAAISSSGTRTYYADSVKGRFTISRDHAKNTVYLQMNSLKPEDTAVYYCAAALGWYSAFGYWGQGTQVTVSS,high polyreactivity
21,QVWLQESGGGRVQACGSLRLSCAASGTIARDIFMGWYRQAPGKEREFVATIAQGGITNYADSVKGRFTISRDNAKNTVYLQMNSVKPGDTAVYYCAARDGNCYWFYYWGQGTQVTVSS,high polyreactivity
22,QVWLQESRGGLVQASGSLRLSCAASGTISRDIFMGWYRQAPGKEREFVATIAQGGITNYADSVKGRFTISRDNAKNTVYLLMISVKPGDTEVYYCAARDGNCYWFYYWGQGTQVTVSS,high polyreactivity
23,QYQLEDSGGGVVQAGCSLRLSCAASGRTFAYYAMGWYRQAPGKERELVAAISSSGGRTYYADSVKGRFTISRDNAKKTVYLQMNSLIPEDTAVYYCAATSTSGVLYDYWGQGTQVTVSS,high polyreactivity
24,QYQLVESGGGLVQAGGSLRLSCAASGRTFYYNAMGWYRQAPGKETELVASITITDSTNYSDSVKGRFTISRDNANNTVYLQMNSLKPEDTAVYYCAKRGLGTSFYLSDYWGQGTQVTVSS,low polyreactivity
25,RDQHVESGGGLVQAGGSLRLSCAASGRTFVPYAMGWYRQAPGKERELVAAISSGGDTNYADSVKGRFTISRDNAKNTVYLQMNSLKPEDTAVYYFAKDLTQIYYGDDYWGQGTQVTVSS,low polyreactivity
26,RVQLQESGGGLVQAGGSLRLICAASGTNFIRGDMGWYRQAPGKEREFVATIDNGSNTYYADSEKGRFTISRDNAKNAVYLQMNCLKPGDTAVYYCVVDYQLSGRLRYWGQGTQVTLSS,low polyreactivity
27,RVQLQESGGGLVQEGGSLRLSCAPSSTISRDFYMGWYRQAPGKELEFVASITYGASTNYADSVKGRVTISRDNANNTVYLQMNSLKPEDTAVYYSNAKQQPYGGTDSDYWGQGTQVSVSS,low polyreactivity
28,RVQLVESGGGLVQAGGSLRFSCAASGRIFPNNAMGWSSQAPGKARELVAAISRTGGSTYYADSVKGRFTISRDNAKNTVYLQMNSLKPEDTAVYYCAASHARWSPYYSRYYYWGQGTQVTGSS,high polyreactivity
29,RVQLVESGGGLVQAGGSLRLSCAASGRIFAQYPMGWYRKAPRKERELLAAITTTGRTYYADSVKGRFTISRDNAKNTVYLQMNSLKPEDTAVSYCAVGYHAPNVSTSDPRYDYWGQGTQVTVSS,low polyreactivity
